How the values were obtained:
Format in all cases: biochemical
[1] = Coupled assay of GabT with glutamate dehydrogenase (NADH formation at 340 nm); details: coupled GDH assay, NADH detected at 340 nm
Description: DNA encoding the GabT protein from E. coli strain BL21-DE3 was amplified from genomic DNA using specially designed primers. The PCR product was restricted using NdeI and BamHI restriction endonucleases (NEB) and ligated (T4 DNA ligase, NEB) into a modified pET expression vector that had also been restricted using the aforementioned enzymes, and contained ampicillin resistance for selectivity. The vector was transformed into electrocompetent E. coli strain BL21-DE3 and transformants plated onto LB agar plates containing ampicillin (100 μg/mL) for selectivity. Transformant DNA was isolated and sent for sequencing to confirm the identity of the vector construct. […] The protein was purified using a HiTrap Chelating HP 5 mL column (GE Healthcare) for nickel affinity chromatography on an FPLC (Fast Protein Liquid Chromatography. GE Healthcare), exploiting an N-terminal His6-tag on GabT. SDS-PAGE confirmed the protein size.
Protein activity was confirmed using a coupled assay that comprised GabT and a commercially available glutamate dehydrogenase (GDH; Sigma Aldrich). The assay works as illustrated below, with the dehydrogenase catalysing the oxidative deamination of glutamate—the co-product of the GabT transamination reaction.
Therefore, although a viable biocatalyst for these substrates had been identified, it could not produce the desired longer chain (>C9) products. […]

[2] = Coupled dehydrogenase assays for transaminase activity of the Pseudomonas sp. proteins and ancestral reconstructions
Protocol: Activity for each protein was assessed using coupled dehydrogenase assays as described previously. A typical assay comprised:
Substrate (6.25 mM final concentration in potassium phosphate buffer)
Co-substrate (pyruvate (0.5 mM final concentration) or α-KG (0.25 mM final concentration)
NAD (1.25 mM final concentration)
Dehydrogenase (1 μL from ADH-≧35 units/mL stock solution or GDH≧35 units/mg protein stock)
Transaminase (final concentration dependent)
Potassium phosphate buffer (100 mM)
UV absorbance at 340 nm was recorded at 28° C. over a pH range of 7.5-10 with a range of substrates.
Proteins encoded by p7N6, p7N15, p7N16, p7N17, p7N43 and p7N48 were expressed using an E. coli recombinant expression platform and subsequently purified.
Each of the proteins were assayed for substrate specificity. Substrates identified by assaying for each of the proteins are summarized below.

[3] = Large-scale (200 mL) p6 reaction analysed by GC-MS; details: C11 amino acid substrate, after seven days, oil analysed by GC-MS
Protocol: To corroborate the findings of the UV assay, a large-scale (200 mL) p6 reaction was carried out using C11 amino acid substrate. After seven days, the mixed reaction was allowed to settle and yellow oil was observed on the surface of the reaction. This oil was concentrated in vacuo and analysed by GC-MS. […] The diacid is thought to be the oxidation product of the semialdehyde formed by the transaminase, further supporting the findings of the UV assay.

B1: GabT: Gamma-aminobutyrate Transaminase; E.C. 2.6.1.19, from E. coli strain BL21-DE3, N-terminal His6-tag (protein, listed as Escherichia coli)
chain: MNSNKELMQRRSQAIPRGVGQIHPIFADRAENCRVWDVEGREYLDFAGGIAVLNTGHLHPKVVAAVEAQLKKLSHTCFQVLAYEPYLELCEIMNQKVPGDFAKKTLLVTTGSEAVENAVKIARAATKRSGTIAFSGAYHGRTHYTLALTGKVNPYSAGMGLMPGHVYRALYPCPLHGISEDDAIASIHRIFKNDAAPEDIAAIVIEPVQGEGGFYASSPAFMQRLRALCDEHGIMLIADEVQSGAGRTGTLFAMEQMGVAPDLTTFAKSIAGGFPLAGVTGRAEVMDAVAPGGLGGTYAGNPIACVAALEVLKVFEQENLLQKANDLGQKLKDGLLAIAEKHPEIGDVRGLGAMIAIELFEDGDHNKPDAKLTAEIVARARDKGLILLSCGPYYNVLRILVPLTIEDAQIRQGLEIISQCFDEAKQ
modifications: N-terminal His6-tag
notes: Gamma-aminobutyrate Transaminase; E.C; 2.6.1.19, from E. coli strain BL21-DE3, N-terminal His6-tag
substrate scope of GabT [1]: C4-C8 omega-amino acids

B2: p6: pyruvate: ω-amino acid transaminase from a newly isolated Pseudomonas sp., amino acid sequence SEQ ID NO:1 (protein, listed as Pseudomonas sp.)
chain: MGSSHHHHHHSSGLVPRGSHMNQQVNVAPSAAADLNLKAHWMPFSANRNFHKDPRIIVAAEGSWLVDDKGRRIYDSLSGLWTCGAGHSRKEIADAVAKQIGTLDYSPGFQYGHPLSFQLAEKIAQMTPGTLDHVFFTGSGSECADTSIKMARAYWRIKGQAQKTKLIGRARGYHGVNVAGTSLGGIGGNRKMFGPLMDVDHLPHTLQPGMAFTKGAAETGGVELANELLKLIELHDASNIAAVIVEPMSGSAGVIVPPKGYLQRLREICDANDILLIFDEVITAFGRMGKATGAEYFGVTPDIMNVAKQVTNGAVPMGAVIASSEIYDTFMNQNLPEYAVEFGHGYTYSAHPVACAAGIAALDLLQKENLIQQSAELAPHFEKALHGLKGTKNVIDIRNCGLAGAIQIAARDGDAIVRPFEASMKLWKEGFYVRFGGDTLQFGPTFNAKPEDLDRLFDAVGEALNGVA
pH optimum ([2]; UV absorbance at 340 nm, 28° C., pH range 7.5-10): ~10 | smallest substrate accepted ([2]; coupled dehydrogenase assay): C3 (β-alanine) | activity with ω-amino acids including long chain C11 and C12 ([2]; coupled dehydrogenase assay, 340 nm, 28° C., pH 7.5-10): shown the desired activity with ω-amino acids, notably including long chain amino acids C11 and C12 | product detected by GC-MS in large-scale reaction [3]: a peak corresponding to the mass of the C11 diacid was also found in large concentrations

Reference: patent publication US20160208226A1, “Transaminase Biocatalysts” (COMMONWEALTH SCIENTIFIC AND INDUSTRIAL RESEARCH ORGANISATION, priority 2013, published 2016)
